Test results reported in publication PMC12063518, “IAT4, a New Indolamine N‐Acetyltransferase in Saccharomyces cerevisiae Involved in Melatonin Biosynthesis” (Journal of Pineal Research, 2025).

Legend:
Test in all cases: purified protein
[1] = substrate: NCCc1c[nH]c2ccc(O)cc12; type: biochemical, Saccharomyces cerevisiae; details: 0.2 mM acetyl-CoA, pH 8.8, 37 °C
[2] = substrate: NCCc1c[nH]c2ccccc12; type: biochemical, Saccharomyces cerevisiae; details: 0.2 mM acetyl-CoA, pH 8.8, 37 °C, 15 min
[3] = substrate: COc1ccc2[nH]cc(CCN)c2c1; type: biochemical, Saccharomyces cerevisiae; details: 0.2 mM acetyl-CoA, pH 8.8, 37 °C, 15 min
[4] = substrate: NCCc1c[nH]c2ccc(O)cc12; details: 0.2 mM acetyl-CoA, pH 8.8, 37 °C, 15 min enzymatic assay as Iat4, fit R2 = 0.825

B1: Iat4 (Saccharomyces cerevisiae S288C) (protein)
chain: MSFENKLPTPLENNDAKGHMVCTLNKTTDARRAAETLSIAFSNSPAFHFICKKILNIPLAEKVPTRTITTDIISPFLDSPYGEISEVNTFDAVAVWSLPPHVPKARSNDAKFNKDFIDDLNARVKQVIPNGINYYYLFCIGKNLNEKGIRGSVRTIFEEYKRRADEENCAIVLEAIAEHAKSVYEYFGFRNYMTFKYGECEVDSNGNCDPNGEGFTAYLMIYHKDGNKVLKE
notes: GST fusion from pGEX-5X-1, E. coli Rosetta (DE3), glutathione Sepharose; native protein 232 aa
Km ([1]; 15 min): 0.93 mM
Km [2]: 356 µM
Km [3]: 353 µM

B2: Paa1 (Saccharomyces cerevisiae S288C) (protein)
chain: MASSSSTLPLHMYIRPLIIEDLKQILNLESQGFPPNERASEEIISFRLINCPELCSGLFIREIEGKEVKKETLIGHIMGTKIPHEYITIESMGKLQVESSNHIGIHSVVIKPEYQKKNLATLLLTDYIQKLSNQEIGNKIVLIAHEPLIPFYERVGFKIIAENTNVAKDKNFAEQKWIDMERELIKEEYDN
Km [4]: 4250 ± 1460 µM

B3: Hpa2 (Saccharomyces cerevisiae S288C) (protein)
chain: MSNTSEDNITVRFVTENDKEGWQRLWKSYQDFYEVSFPDDLDDFNFGRFLDPNIKMWAAVAVESSSEKIIGMINFFNHMTTWDFKDKIYINDLYVDENSRVKGAGGKLIQFVYDEADKLGTPSVYWCTDESNHRAQLLYVKVGYKAPKILYKRKGY
notes: same enzymatic assay as Iat4
Km ([1]; 15 min enzymatic assay as Iat4, unit not given, mM from the preceding sentence): 6.82 ± 1.62 mM
